Columns and labels:
[1] = target: T1, SARS-CoV-2 spike receptor-binding domain (RBD) (SARS-CoV-2, UniProt P0DTC2, biotinylated for BLI (site not stated); covalently coupled to MagPlex beads by EDC/sNHS in the bead assays); experiment: bead-based multiplex ACE2 competi; settings: both partners purified
[2] = target: T1, SARS-CoV-2 spike receptor-binding …; experiment: BLI; settings: both partners purified

B1: nanobody NM1226 (VHH)
VHH: QVQLVESGGGSVQPGGSLRLSCLGSGSLDYYAIGWFRQAPGKEREGVSCIASSGDRTIYADSVKGRFTISRDYGKNTVYLQMNSLKPEDTAMYYCAALQGSYYYTGFVANEYDYWGQGAPVTVSS
With B1 the IC50 [1] was 0.82 nM and the Kd [2] was 3.66 nM.
